# Assay results from US8663655B2, “Method for transforming a bacterium belonging to the Streptococcus genus by natural competence” (Dupont Nutrition Biosciences APS, dated 2014).
# Like-named read-outs stand apart in the source and are kept apart here.
# Assays:
# [1] = molecular target: STER-0316 homologue of S. thermophilus CNRZ1066 (Streptococcus thermophilus CNRZ1066)
# [2] = molecular target: T1, transcriptional regulator (Rgg) STER-0316 (Streptococcus thermophilus LMD-9); experiment: cell-based or functional assay
# T1 chain: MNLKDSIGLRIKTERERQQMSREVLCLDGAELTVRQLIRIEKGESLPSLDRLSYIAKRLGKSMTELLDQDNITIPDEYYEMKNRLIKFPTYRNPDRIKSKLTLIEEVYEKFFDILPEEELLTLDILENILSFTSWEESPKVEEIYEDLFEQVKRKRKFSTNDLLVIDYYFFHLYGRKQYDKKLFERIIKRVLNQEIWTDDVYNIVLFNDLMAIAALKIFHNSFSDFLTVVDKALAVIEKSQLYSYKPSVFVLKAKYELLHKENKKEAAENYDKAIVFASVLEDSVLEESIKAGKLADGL
# [3] = molecular target: STER-0316 homologue of S. thermophilus CNRZ1066 (Streptococcus thermophilus CNRZ1066); remark: listed apart in the source
# [4] = molecular target: STER-0316 homologue of S. thermophilus LMG18311 (Streptococcus thermophilus LMG18311)
# [5] = molecular target: STER-0316 homologue of S. thermophilus CNRZ1066 (Streptococcus thermophilus CNRZ1066); remark: listed apart in the source
# [6] = molecular target: STER-0316 homologue of S. thermophilus LMG18311 (Streptococcus thermophilus LMG18311); remark: listed apart in the source
Transformation rate with peptide addition (1 µM) [2],other results,Molecule
–,Transformation rate of S. thermophilus CNRZ1066 with peptide addition (1 µM) [1]: 3.48e-07,synthetic peptide PYFTGCL
< 1e-08,–,PYFAGC [synthetic peptide PYFAGC]
0.00318,"Transformation rate of S. thermophilus CNRZ1066 with peptide addition (1 µM), donor pGIUD0855cat [3]: 0.03; Transformation rate of S. thermophilus LMG18311 with peptide addition (1 µM), donor pGIUD0855cat [4]: 0.13",LPYFAGCL [synthetic peptide LPYFAGCL]
0.00342,–,ILPYFAGCL [synthetic peptide ILPYFAGCL]
< 1e-08,–,ILPYFAG [synthetic peptide ILPYFAG]
< 1e-08,–,PYFAG [synthetic peptide PYFAG]
< 1e-08,–,AILPYFAGC [synthetic peptide AILPYFAGC]
0.00478,Transformation rate of S. thermophilus CNRZ1066 with peptide addition (1 µM) [5]: 0.000369; Transformation rate of S. thermophilus LMG18311 with peptide addition (1 µM) [6]: 0.000317,PYFAGCL [synthetic peptide PYFAGCL]
< 1e-08,–,LPYFAGC [synthetic peptide LPYFAGC]
< 1e-08,–,ILPYFAGC [synthetic peptide ILPYFAGC]
0.00221,–,AILPYFAGCL [synthetic peptide AILPYFAGCL]
